Like-named read-outs stand apart in the source and are kept apart here.

Data set [1] concerns the molecule itself. Kind of data set: negative-stain electron microscopy, single particle analysis.
Data set [2] deals with the molecule itself. The data set is described as follows: AUC.
Data set [3] concerns the molecule itself. Kind of data set: AUC. This is another data set of the same source.

B1: His6-NSF-myc (1-744), N-Ethylmaleimide Sensitive Factor, wild type (enzyme, Chinese hamster (from CHO cells), UniProt P18708 1-744, looked up)
chain: MAGRSMQAARCPTDELSLSNCAVVSEKDYQSGQHVIVRTSPNHKYIFTLRTHPSVVPGSVAFSLPQRKWAGLSIGQEIEVALYSFDKAKQCIGTMTIEIDFLQKKNIDSNPYDTDKMAAEFIQQFNNQAFSVGQQLVFSFNDKLFGLLVKDIEAMDPSILKGEPASGKRQKIEVGLVVGNSQVAFEKAENSSLNLIGKAKTKENRQSIINPDWNFEKMGIGGLDKEFSDIFRRAFASRVFPPEIVEQMGCKHVKGILLYGPPGCGKTLLARQIGKMLNAREPKVVNGPEILNKYVGESEANIRKLFADAEEEQRRLGANSGLHIIIFDEIDAICKQRGSMAGSTGVHDTVVNQLLSKIDGVEQLNNILVIGMTNRPDLIDEALLRPGRLEVKMEIGLPDEKGRLQILHIHTARMRGHQLLSADVDIKELAVETKNFSGAELEGLVRAAQSTAMNRHIKASTKVEVDMEKAESLQVTRGDFLASLENDIKPAFGTNQEDYASYIMNGIIKWGDPVTRVLDDGELLVQQTKNSDRTPLVSVLLEGPPHSGKTALAAKIAEESNFPFIKICSPDKMIGFSETAKCQAMKKIFDDAYKSQLSCVVVDDIERLLDYVPIGPRFSNLVLQALLVLLKKAPPQGRKLLIIGTTSRKDVLQEMEMLNAFSTTIHVPNIATGEQLLEALELLGNFKDKERTTIAQQVKGKKVWIGIKKLLMLIEMSLQMDPEYRVRKFLALLREEGASPLDFD
modifications: (Ni2+-NTA)2-Cy3 bound to the His6 tag (ultracentrifugation only; 1 mole of dye per mole of NSF hexamer)
As usually defined, the stoichiometry N is the number of molecules, sites or subunits per partner or assembly. Regarding B1, in data set [1], the “stoichiometry N” value was determined as 6. The entries for the “% Hexamer” value in data set [2] and in data set [3] were 62 ± 5.74% and 47 ± 3.7%, respectively.

B2: His6-NSF-R67A-myc (enzyme, Chinese hamster (from CHO cells), UniProt P18708 1-744, looked up)
chain: MAGRSMQAARCPTDELSLSNCAVVSEKDYQSGQHVIVRTSPNHKYIFTLRTHPSVVPGSVAFSLPQAKWAGLSIGQEIEVALYSFDKAKQCIGTMTIEIDFLQKKNIDSNPYDTDKMAAEFIQQFNNQAFSVGQQLVFSFNDKLFGLLVKDIEAMDPSILKGEPASGKRQKIEVGLVVGNSQVAFEKAENSSLNLIGKAKTKENRQSIINPDWNFEKMGIGGLDKEFSDIFRRAFASRVFPPEIVEQMGCKHVKGILLYGPPGCGKTLLARQIGKMLNAREPKVVNGPEILNKYVGESEANIRKLFADAEEEQRRLGANSGLHIIIFDEIDAICKQRGSMAGSTGVHDTVVNQLLSKIDGVEQLNNILVIGMTNRPDLIDEALLRPGRLEVKMEIGLPDEKGRLQILHIHTARMRGHQLLSADVDIKELAVETKNFSGAELEGLVRAAQSTAMNRHIKASTKVEVDMEKAESLQVTRGDFLASLENDIKPAFGTNQEDYASYIMNGIIKWGDPVTRVLDDGELLVQQTKNSDRTPLVSVLLEGPPHSGKTALAAKIAEESNFPFIKICSPDKMIGFSETAKCQAMKKIFDDAYKSQLSCVVVDDIERLLDYVPIGPRFSNLVLQALLVLLKKAPPQGRKLLIIGTTSRKDVLQEMEMLNAFSTTIHVPNIATGEQLLEALELLGNFKDKERTTIAQQVKGKKVWIGIKKLLMLIEMSLQMDPEYRVRKFLALLREEGASPLDFD
modifications: (Ni2+-NTA)2-Cy3 bound to the His6 tag (ultracentrifugation)
B2: the “% Hexamer” value in data set [2] was 55.6 ± 12.5%; in data set [3], 38.7 ± 4.21%.

B3: His6-NSF-L441A-myc (enzyme, Chinese hamster (from CHO cells), UniProt P18708 1-744, looked up)
chain: MAGRSMQAARCPTDELSLSNCAVVSEKDYQSGQHVIVRTSPNHKYIFTLRTHPSVVPGSVAFSLPQRKWAGLSIGQEIEVALYSFDKAKQCIGTMTIEIDFLQKKNIDSNPYDTDKMAAEFIQQFNNQAFSVGQQLVFSFNDKLFGLLVKDIEAMDPSILKGEPASGKRQKIEVGLVVGNSQVAFEKAENSSLNLIGKAKTKENRQSIINPDWNFEKMGIGGLDKEFSDIFRRAFASRVFPPEIVEQMGCKHVKGILLYGPPGCGKTLLARQIGKMLNAREPKVVNGPEILNKYVGESEANIRKLFADAEEEQRRLGANSGLHIIIFDEIDAICKQRGSMAGSTGVHDTVVNQLLSKIDGVEQLNNILVIGMTNRPDLIDEALLRPGRLEVKMEIGLPDEKGRLQILHIHTARMRGHQLLSADVDIKELAVETKNFSGAEAEGLVRAAQSTAMNRHIKASTKVEVDMEKAESLQVTRGDFLASLENDIKPAFGTNQEDYASYIMNGIIKWGDPVTRVLDDGELLVQQTKNSDRTPLVSVLLEGPPHSGKTALAAKIAEESNFPFIKICSPDKMIGFSETAKCQAMKKIFDDAYKSQLSCVVVDDIERLLDYVPIGPRFSNLVLQALLVLLKKAPPQGRKLLIIGTTSRKDVLQEMEMLNAFSTTIHVPNIATGEQLLEALELLGNFKDKERTTIAQQVKGKKVWIGIKKLLMLIEMSLQMDPEYRVRKFLALLREEGASPLDFD
modifications: (Ni2+-NTA)2-Cy3 bound to the His6 tag (ultracentrifugation)
Take B3: the “% Hexamer” value came to 34.4 ± 1.06% in data set [2] and 34.2 ± 2.78% in data set [3].

B4: His6-NSF-D2 fragment (488-744) (domain or fragment, Chinese hamster (from CHO cells), UniProt P18708 488-744, looked up)
chain: IKPAFGTNQEDYASYIMNGIIKWGDPVTRVLDDGELLVQQTKNSDRTPLVSVLLEGPPHSGKTALAAKIAEESNFPFIKICSPDKMIGFSETAKCQAMKKIFDDAYKSQLSCVVVDDIERLLDYVPIGPRFSNLVLQALLVLLKKAPPQGRKLLIIGTTSRKDVLQEMEMLNAFSTTIHVPNIATGEQLLEALELLGNFKDKERTTIAQQVKGKKVWIGIKKLLMLIEMSLQMDPEYRVRKFLALLREEGASPLDFD
modifications: (Ni2+-NTA)2-Cy3 bound to the His6 tag (ultracentrifugation)
For the protein B4, the “% Hexamer” value in data set [2] was found to be 28.8 ± 1.92%; in data set [3] it was 10.3 ± 0.63%.

B5: His6-NSF-D1D2-myc fragment (206-744) (domain or fragment, Chinese hamster (from CHO cells), UniProt P18708 206-744, looked up)
chain: QSIINPDWNFEKMGIGGLDKEFSDIFRRAFASRVFPPEIVEQMGCKHVKGILLYGPPGCGKTLLARQIGKMLNAREPKVVNGPEILNKYVGESEANIRKLFADAEEEQRRLGANSGLHIIIFDEIDAICKQRGSMAGSTGVHDTVVNQLLSKIDGVEQLNNILVIGMTNRPDLIDEALLRPGRLEVKMEIGLPDEKGRLQILHIHTARMRGHQLLSADVDIKELAVETKNFSGAELEGLVRAAQSTAMNRHIKASTKVEVDMEKAESLQVTRGDFLASLENDIKPAFGTNQEDYASYIMNGIIKWGDPVTRVLDDGELLVQQTKNSDRTPLVSVLLEGPPHSGKTALAAKIAEESNFPFIKICSPDKMIGFSETAKCQAMKKIFDDAYKSQLSCVVVDDIERLLDYVPIGPRFSNLVLQALLVLLKKAPPQGRKLLIIGTTSRKDVLQEMEMLNAFSTTIHVPNIATGEQLLEALELLGNFKDKERTTIAQQVKGKKVWIGIKKLLMLIEMSLQMDPEYRVRKFLALLREEGASPLDFD
modifications: (Ni2+-NTA)2-Cy3 bound to the His6 tag (ultracentrifugation only)
As for B5, the “stoichiometry N” value in data set [1] amounted to 6. The “% Hexamer” value is 44 ± 2.93% in data set [2] and 14.1 ± 0.31% in data set [3].

Source of the values: article PMC3382979 (Journal of Structural Biology, 2012).
